Experimental findings from article PMC12233092, “NSUN2-mediated HCV RNA m5C Methylation Facilitates Viral RNA Stability and Replication” are described below.

Common to all, as to settings: protein: recombinant; tags: 6xHis; blunt
Series [1] deals with T1, E2F1 (Homo sapiens? (cDNA amplified, Huh7.5.1 …, UniProt Q01094 1-437)). Kind of series: EMSA; E2F1 50-400 nM, probe 10 nM; EMSA binding buffer (Beyotime GS005; composition and pH not given), room temperature, 30 min; 8% TBE agarose gel as stated, on ice, 80 V 1.5 h. On the technique in general: In EMSA bound probe runs differently from free probe, usually more slowly.
T1 sequence (Q01094 whole entry): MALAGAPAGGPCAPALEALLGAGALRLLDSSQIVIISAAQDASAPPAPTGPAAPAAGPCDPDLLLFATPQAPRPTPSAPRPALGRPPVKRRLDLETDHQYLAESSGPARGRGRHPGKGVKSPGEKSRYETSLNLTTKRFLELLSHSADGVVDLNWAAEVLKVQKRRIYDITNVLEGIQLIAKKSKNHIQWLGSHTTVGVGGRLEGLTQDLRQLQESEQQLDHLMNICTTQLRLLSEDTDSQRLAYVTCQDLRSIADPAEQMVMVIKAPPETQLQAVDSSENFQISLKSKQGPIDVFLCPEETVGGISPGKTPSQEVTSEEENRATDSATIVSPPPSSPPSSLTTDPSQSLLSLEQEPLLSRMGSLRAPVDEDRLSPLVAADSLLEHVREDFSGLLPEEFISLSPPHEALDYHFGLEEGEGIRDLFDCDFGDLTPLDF
The target in series [2] is T1, E2F1. Put plainly: competition; 10 uM unlabeled competitor vs 10 nM FAM-labeled N1; interaction abrogated; EMSA binding buffer (Beyotime GS005; composition and pH not given), room temperature, 30 min; 8% TBE agarose gel as stated, on ice, 80 V 1.5 h.
For series [3], the target named is T1, E2F1. Put plainly: EMSA; probe 10 nM; EMSA binding buffer (Beyotime GS005; composition and pH not given), room temperature, 30 min; 8% TBE agarose gel as stated, on ice, 80 V 1.5 h.

B1: NSUN2-Promoter-probe (dsDNA)
DNA 1: CTGACGATTGCGCGCGAAGACCGCGCAGCCCA
DNA 2: TGGGCTGCGCGGTCTTCGCGCGCAATCGTCAG
Regarding B1, the binding result with E2F1 [1] is on record as “binds”.

B2: NSUN2-Promoter-probe, unlabeled competitor (dsDNA)
DNA 1: CTGACGATTGCGCGCGAAGACCGCGCAGCCCA
DNA 2: TGGGCTGCGCGGTCTTCGCGCGCAATCGTCAG
Take B2: the binding result with E2F1 [2] is reported as “binds”.

B3: NSUN2-Promoter-Mut-probe (dsDNA)
DNA 1: CTGACGATGGGATTCTTTGACCGCGCAGCCCA
DNA 2: TGGGCTGCGCGGTCAAAGAATCCCATCGTCAG
For B3, the binding result with E2F1 [3] is reported as “no binding”.
